Source: article PMC9828358

Key:
[1] = biological target: 33‐mer gliadin peptide (wheat); experiment: surface tension (Wilhelmy plate); titration of freshly filtered (220 nm cut-off) peptide into the subphase, nanomolar range, 22 °C; critical concentration of aggregation
[2] = biological target: 33‐mer gliadin peptide (wheat); experiment: other fluorescence titration; intrinsic Tyr steady-state fluorescence anisotropy against peptide concentration (100-600 μM), stabilised aqueous solution pH 6.5, 25 °C, excitation 280 nm, emission 305 nm; simple one-to-one binding model; step: association of oligomers into the larger structures

33‐mer gliadin peptide
critical concentration of aggregation (CAC) [1]: 75 nM | Kd [2]: 165 µM
